# Numbering of substitutions follows the chain as printed.
# T1: mouse B7-H4 expressed on cells (mouse, UniProt Q7TSP5 25-257)
# T1 construct: also called cellular mB7-H4; mB7-H4/CT26
# T1 sequence: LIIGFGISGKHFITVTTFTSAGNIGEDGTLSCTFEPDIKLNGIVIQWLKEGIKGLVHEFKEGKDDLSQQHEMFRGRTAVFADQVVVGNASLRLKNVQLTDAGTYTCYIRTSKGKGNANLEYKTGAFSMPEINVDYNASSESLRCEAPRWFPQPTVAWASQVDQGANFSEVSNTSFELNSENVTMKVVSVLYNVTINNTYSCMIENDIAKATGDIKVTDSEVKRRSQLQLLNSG
# T2: mouse B7-H4-his (mouse, UniProt Q7TSP5 25-257)
# T2 construct: also called mB7-H4-his; mB7-H4-His; not shown: his tag
# T2 sequence: T1 sequence
# T3: mB7-H4 (soluble mouse B7-H4, construct not named) (mouse, UniProt Q7TSP5 25-257, limits assumed)
# T3 sequence: T1 sequence
# T4: human B7-H4 expressed on cells (human, UniProt Q7Z7D3 25-282)
# T4 construct: Transfected CHO cells or tumor cell lines that carry hB7-H4; also called cellular hB7-H4
# T4 sequence: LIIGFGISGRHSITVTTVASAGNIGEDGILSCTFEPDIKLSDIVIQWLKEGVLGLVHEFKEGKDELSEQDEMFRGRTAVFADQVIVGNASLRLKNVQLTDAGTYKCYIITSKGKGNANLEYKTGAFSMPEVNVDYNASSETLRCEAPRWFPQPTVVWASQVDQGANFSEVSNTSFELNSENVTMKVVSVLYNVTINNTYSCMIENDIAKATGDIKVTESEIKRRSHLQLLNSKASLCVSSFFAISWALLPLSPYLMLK
# T5: hB7-H4 (soluble human B7-H4, construct not named) (human, UniProt Q7Z7D3 25-259, limits assumed)
# T5 construct: also called soluble hB7-H4
# T5 sequence: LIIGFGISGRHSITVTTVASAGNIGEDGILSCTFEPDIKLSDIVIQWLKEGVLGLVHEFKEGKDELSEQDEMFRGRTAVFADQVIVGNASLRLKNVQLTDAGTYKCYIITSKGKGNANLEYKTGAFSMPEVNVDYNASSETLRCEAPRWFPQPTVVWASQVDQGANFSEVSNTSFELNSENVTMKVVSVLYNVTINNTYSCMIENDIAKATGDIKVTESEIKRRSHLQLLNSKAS
# T6: human B7-H4-his (human, UniProt Q7Z7D3 25-259)
# T6 construct: also called hB7-H4-his; hB7-H4 his; not shown: his tag
# T6 sequence: T5 sequence
# B1: 39A11/56A9 (antibody, human IgG1, V domains shown)
# VH: EVQLLESGGGLVQPGGSLRLSCAASGFTFSSYGMHWVRQAPGKGLEWVASISSSSGYIYYADSVKGRFTISRDNSKNTLYLQMNSLRAEDTAVYYCARASSGMDVWGQGTTVTVSS
# VL: DIQMTQSPSSLSASVGDRVTITCRASQSISSYLNWYQQKPGKAPKLLIYAASIRESGVPSRFSGSGSGTDFTLTISSLQPEDFATYYCQQYYTTPLTFGQGTKLEIK
# notes: 39A11 VH with 56A9 VL
# B2: 39A11/56H7 (antibody, human IgG1, V domains shown)
# VH: B1 VH
# VL: B1 VL with I53N, R54L, E55Q
# notes: 39A11 VH with 56H7 VL
# B3: 39A11/57H3 (antibody, human IgG1, V domains shown)
# VH: B1 VH
# VL: B1 VL with R24Q, S28D, S30R, S31K, I53T, T93S, T94L
# notes: 39A11 VH with 57H3 VL
# B4: 39A11/62F9 (antibody, human IgG1, V domains shown)
# VH: B1 VH
# VL: B1 VL with I29V, Y32A, L33V, N34A, T93S
# notes: 39A11 VH with 62F9 VL
# B5: 9D11/67C3 (antibody, human IgG1, V domains shown)
# VH: QVQLVQSGAEVKKPGASVKVSCKASGYTFTSYGISWVRQAPGQGLEWVGVINPNGGTTTYAQTFQGRVTMTRDTSTSTVYMELSSLRSEDTAVYYCARTGYSSGWAFDYWGRGTLVTVSS
# VL: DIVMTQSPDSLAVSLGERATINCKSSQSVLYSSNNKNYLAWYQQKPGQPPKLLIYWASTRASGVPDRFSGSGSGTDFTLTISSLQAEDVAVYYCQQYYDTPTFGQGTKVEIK
# notes: 9D11 VH with 67C3 VL
# B6: 9D11/68F5 (antibody, human IgG1, V domains shown)
# VH: B5 VH
# VL: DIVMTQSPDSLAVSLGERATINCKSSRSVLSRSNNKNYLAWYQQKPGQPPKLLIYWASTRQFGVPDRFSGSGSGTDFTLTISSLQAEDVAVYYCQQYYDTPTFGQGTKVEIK
# notes: 9D11 VH with 68F5 VL
# B7: 9D11/67E12 (antibody, human IgG1, V domains shown)
# VH: B5 VH
# VL: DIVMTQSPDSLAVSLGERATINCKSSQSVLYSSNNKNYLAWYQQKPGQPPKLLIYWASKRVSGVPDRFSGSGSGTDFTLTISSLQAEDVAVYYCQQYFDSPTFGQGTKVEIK
# notes: 9D11 VH with 67E12 VL
# Target: T7, IgC domain of mouse B7-H4-Fc (mouse; human)
# T7 construct: also called mB7-H4 IgC domain
# T7 sequence (chain, as listed by the source): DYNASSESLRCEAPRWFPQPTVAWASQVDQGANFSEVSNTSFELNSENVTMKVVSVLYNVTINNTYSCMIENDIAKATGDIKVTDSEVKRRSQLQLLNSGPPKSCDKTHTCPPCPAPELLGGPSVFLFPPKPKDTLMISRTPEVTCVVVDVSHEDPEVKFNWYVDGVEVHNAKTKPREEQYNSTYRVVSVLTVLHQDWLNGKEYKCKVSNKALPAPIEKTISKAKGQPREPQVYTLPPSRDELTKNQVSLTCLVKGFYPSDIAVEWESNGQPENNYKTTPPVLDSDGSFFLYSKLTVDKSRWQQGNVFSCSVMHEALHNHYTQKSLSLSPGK
# Assay: ELISA, coated mB7-H4 IgC domain
row,Binder,binding result
1,B1,no binding (tested: log 1 nM (10 nM))
2,B2,no binding (tested: log 1 nM (10 nM))
3,B3,no binding (tested: log 1 nM (10 nM))
4,B4,no binding (tested: log 1 nM (10 nM))

# Target: T8, mouse B7-H4-Fc (mouse; human)
# T8 construct: also called mB7-H4-Fc; mB7-H4-hFc
# T8 sequence (chain, as listed by the source): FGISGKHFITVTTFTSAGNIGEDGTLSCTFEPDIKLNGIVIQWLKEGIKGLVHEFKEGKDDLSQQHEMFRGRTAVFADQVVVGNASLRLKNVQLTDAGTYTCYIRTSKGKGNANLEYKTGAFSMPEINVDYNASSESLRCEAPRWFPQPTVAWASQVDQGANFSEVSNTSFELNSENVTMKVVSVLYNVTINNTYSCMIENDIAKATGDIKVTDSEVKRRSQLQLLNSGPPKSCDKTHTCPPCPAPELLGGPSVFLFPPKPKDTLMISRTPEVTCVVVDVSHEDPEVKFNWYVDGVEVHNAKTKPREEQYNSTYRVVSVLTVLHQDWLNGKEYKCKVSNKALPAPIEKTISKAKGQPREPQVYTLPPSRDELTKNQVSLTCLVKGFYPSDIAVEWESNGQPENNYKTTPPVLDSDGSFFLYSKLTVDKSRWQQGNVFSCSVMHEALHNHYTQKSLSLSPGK
# Assay: ELISA, coated mB7-H4-Fc
# Procedure: (§1) About 1-2 μg/ml of human or mouse B7-H4-Fc (or his-tagged) was immobilized on ELISA plates (Immuno 2HB, Thermo scientific, cat #3455) at 4° C. overnight. After blocking the plates with 3% PBS+milk, serial diluted antibodies were added to the blocked plates and incubated at RT for 1-1.5 h. After washing the plates with PBS-T (0.05%), horse radish peroxidase (HRP)-conjugated antibody targeting the hFab was added to the plate. Signals were developed by adding 3,3′,5,5′-Tetramethylbenzidine (TMB (followed 1N of H₂SO₄ to stop the reaction. The OD at 450 nm was read by ELISA plate reader (Infinite M1000 from TECAN). GraphPad from Prism was used to plot OD450 vs. antibody concentration curve and to calculate the EC50 values.
row,Binder,binding result
1,B5,binds
2,B6,binds
3,B7,binds
4,B1,binds
5,B2,binds
6,B3,binds
7,B4,binds

# Target: T1, mouse B7-H4 expressed on cells
# Assay: flow cytometry, mB7-H4/CT26 cells
row,Binder,EC50 [nM]
1,B6,9.41

# Target: T2, mouse B7-H4-his
# Assay: ELISA, coated mB7-H4-his (title on the sheet: Binding to mB7H4-his)
# Procedure: as §1
row,Binder,EC50 (read off the curve) [nM]
1,B5,~0.2
2,B6,~0.1
3,B7,~0.1

# Target: T3, mB7-H4 (soluble mouse B7-H4, construct …)
# Assay: ELISA, mB7-H4
# Procedure: as §1
row,Binder,EC50 [nM]
1,B6,0.144

# Target: T4, human B7-H4 expressed on cells
# Assay: flow cytometry, SK-BR-3 cells
row,Binder,EC50 [nM]
1,B6,3.53

# Target: T9, IgC domain of human B7-H4-Fc (human)
# T9 construct: also called hB7-H4 IgC domain
# T9 sequence (chain, as listed by the source): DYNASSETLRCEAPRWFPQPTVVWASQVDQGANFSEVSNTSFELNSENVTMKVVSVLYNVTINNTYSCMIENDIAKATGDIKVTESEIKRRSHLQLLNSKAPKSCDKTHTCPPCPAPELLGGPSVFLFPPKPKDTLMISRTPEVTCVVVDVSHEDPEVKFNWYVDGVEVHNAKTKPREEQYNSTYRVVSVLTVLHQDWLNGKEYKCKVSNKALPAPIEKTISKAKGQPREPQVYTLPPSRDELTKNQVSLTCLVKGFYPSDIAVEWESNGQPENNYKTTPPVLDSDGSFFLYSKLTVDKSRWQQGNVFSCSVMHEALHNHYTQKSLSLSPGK
# Assay: ELISA, coated hB7-H4 IgC domain
row,Binder,EC50 (read off the curve) [nM]
1,B6,~0.1

# Target: T3, mB7-H4 (soluble mouse B7-H4, construct …)
# Assay: SPR (Biacore); values equal to Table 11
row,Binder,Kd [nM]
1,B6,2.96

# Target: T5, hB7-H4 (soluble human B7-H4, construct …)
# Assay: ELISA, hB7-H4
# Procedure: as §1
row,Binder,EC50 [nM]
1,B6,0.105

# Target: T10, IgV domain of human B7-H4-Fc (human)
# T10 construct: also called hB7-H4 IgV domain
# T10 sequence (chain, as listed by the source): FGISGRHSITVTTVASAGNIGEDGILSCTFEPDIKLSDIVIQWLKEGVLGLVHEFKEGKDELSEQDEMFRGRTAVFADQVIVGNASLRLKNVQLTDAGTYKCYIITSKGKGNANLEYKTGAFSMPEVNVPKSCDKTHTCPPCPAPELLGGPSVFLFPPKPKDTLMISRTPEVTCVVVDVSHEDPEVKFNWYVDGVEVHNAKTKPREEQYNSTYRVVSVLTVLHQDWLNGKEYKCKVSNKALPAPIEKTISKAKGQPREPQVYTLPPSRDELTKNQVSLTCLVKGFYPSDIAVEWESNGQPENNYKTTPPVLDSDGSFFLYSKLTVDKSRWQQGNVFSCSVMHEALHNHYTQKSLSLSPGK
# Assay: ELISA, coated hB7-H4 IgV domain
row,Binder,binding result
1,B6,no binding (tested: log 1 nM (10 nM))

# Target: T4, human B7-H4 expressed on cells
# Assay: flow cytometry, SK-BR-3 cells
# Remark: another data set of the same source
# Procedure: (§2) Cells were harvested, washed once, and then re-suspended to the concentration of 1×10⁶ cells/ml in ice cold FACS Buffer. 25 μl of cell suspension was added to each well of a 96-well round-bottom microliter plate. Serially diluted antibodies or fusion proteins were added to each well and incubated for 1 hour at 4° C. Cells were washed three times by centrifugation at 1500 rpm for 5 minutes, and then stained with secondary antibody (1:200 dilution) for 30 min at 4° C. in the dark. Cells were washed once, re-suspended in 100 μl PBS buffer and then analyzed using Guava Flow Cytometry EasyCyte system.
row,Binder,EC50 [nM]
1,B5,4.06
2,B6,9.53
3,B7,8.08
4,B1,2.53
5,B2,2.85
6,B3,2.07
7,B4,1.31

# Target: T3, mB7-H4 (soluble mouse B7-H4, construct …)
# Assay: ELISA, mB7-H4
# Remark: another data set of the same source
# Procedure: as §1
row,Binder,EC50 [nM]
1,B5,0.086
2,B6,0.145
3,B7,0.11
4,B1,0.13
5,B2,0.107
6,B3,0.128
7,B4,0.124

# Target: T5, hB7-H4 (soluble human B7-H4, construct …)
# Assay: ELISA, hB7-H4
# Remark: another data set of the same source
# Procedure: as §1
row,Binder,EC50 [nM]
1,B5,0.112
2,B6,0.778
3,B7,0.203
4,B1,0.081
5,B2,0.061
6,B3,0.086
7,B4,0.079

# Target: T3, mB7-H4 (soluble mouse B7-H4, construct …)
# Assay: SPR (Biacore)
# Procedure: (§3) Surface plasmon resonance experiments were performed using a Biacore T200 instrument equipped with CM5 sensor chips. The system was equilibrated in running buffer HBS-EP pH 7.4. The ligands were immobilized using amine-coupling chemistry. The surfaces of flow cells one through four were activated for 5 min using an amine coupling kit at a flow rate of […]. The ligands (human B7-H4-Fc, human B7-H4-hism and mouse B7-H4-Fc; at a concentration of 5 μg/ml in 10 mM sodium acetate, pH 5.0) were immobilized at a density of 50-100 RU on flow cell 2, 3, 4 respectively. Flow cell 1 was left blank to serve as a reference surface. All flow cell surfaces were blocked with a 5 min injection of 1 M ethanolamine, pH 8.0. To collect kinetic binding data, the respective analyte (diluted in 1×HBS-EP buffer, pH 7.4) was injected over the four flow cells at concentrations of 100 nM to 0.1 nM at a flow rate of […] and at a temperature of 25° C. The protein complex was allowed to associate and dissociate for 180 seconds and 1000 or 1200 seconds, respectively. The surfaces were regenerated with a 30 second injection of 1.5 M NaCl/0.05 M NaOH. The data were fit to a simple 1:1 interaction model using the Langmuir fit option available within the Biaevaluaton software
Binder,Kd [nM],koff [s⁻¹]
B5,10.4,–
B6,5.96,–
B7,4.66,–
B1,0.00138,–
B2,0.000219,–
B3,0.00125,6.22e-07
B4,1.85,–

# Target: T5, hB7-H4 (soluble human B7-H4, construct …)
# Assay: SPR (Biacore)
# Procedure: as §3
row,Binder,Kd [nM]
1,B5,11.4
2,B6,7.15
3,B7,6.3
4,B1,1.21
5,B2,0.779
6,B3,0.478
7,B4,0.853

# Target: T6, human B7-H4-his
# Assay: ELISA, coated hB7-H4-his
# Procedure: as §1
row,Binder,EC50 (read off the curve) [nM]
1,B5,~0.2
2,B6,~0.2
3,B7,~0.2

# Target: T1, mouse B7-H4 expressed on cells
# Assay: flow cytometry, mB7-H4/CT26 cells
# Remark: another data set of the same source
# Procedure: as §2
row,Binder,EC50 [nM]
1,B5,28.2
2,B6,31.8
3,B7,16.7
4,B1,1.85
5,B2,1.67
6,B3,1.63
7,B4,1.32

# Target: T11, IgV domain of mouse B7-H4-Fc (mouse; human)
# T11 construct: also called mB7-H4 IgV domain
# T11 sequence (chain, as listed by the source): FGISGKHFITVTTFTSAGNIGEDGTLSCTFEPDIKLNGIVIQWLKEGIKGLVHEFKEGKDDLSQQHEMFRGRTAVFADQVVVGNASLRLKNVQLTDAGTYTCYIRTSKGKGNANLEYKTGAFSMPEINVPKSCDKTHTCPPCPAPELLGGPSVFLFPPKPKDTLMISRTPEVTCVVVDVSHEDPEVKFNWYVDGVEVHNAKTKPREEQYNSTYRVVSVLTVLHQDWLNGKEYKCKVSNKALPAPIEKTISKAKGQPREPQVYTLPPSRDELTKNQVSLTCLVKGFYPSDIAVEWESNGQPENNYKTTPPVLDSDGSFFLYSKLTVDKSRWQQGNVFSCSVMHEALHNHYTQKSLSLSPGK
# Assay: ELISA, coated mB7-H4 IgV domain
row,Binder,binding result
1,B6,no binding (tested: log 1 nM (10 nM))

# Target: T5, hB7-H4 (soluble human B7-H4, construct …)
# Assay: SPR (Biacore)
# Remark: another data set of the same source
row,Binder,Kd [nM]
1,B6,2.96

# Target: T9, IgC domain of human B7-H4-Fc
# Assay: ELISA, coated hB7-H4 IgC domain
# Remark: another data set of the same source
row,Binder,binding result
1,B1,no binding (tested: log 1 nM (10 nM))
2,B2,no binding (tested: log 1 nM (10 nM))
3,B3,no binding (tested: log 1 nM (10 nM))
4,B4,no binding (tested: log 1 nM (10 nM))
